Laboratory results taken from paper PMC3720892, “Functional Analysis of the Superfamily 1 DNA Helicases Encoded by Mycoplasma pneumoniae and Mycoplasma genitalium”.

Experiments:
PcrA Mpn [1] = target: T1, PcrA Mpn (Mycoplasma pneumoniae strain M129, UniProt P75437 1-715); experiment: EMSA; 22-200 nM protein; 20 mM Tris-HCl pH 7.5, 1 mM DTT, 50 ng/ul BSA, 8 nM DNA, 15 min at room temperature, no Mg2+ or ATP listed; 6% PAGE in 1x TBE; details: protein: recombinant; tags: N-terminal MBP; label: 5' 6-FAM
T1 sequence: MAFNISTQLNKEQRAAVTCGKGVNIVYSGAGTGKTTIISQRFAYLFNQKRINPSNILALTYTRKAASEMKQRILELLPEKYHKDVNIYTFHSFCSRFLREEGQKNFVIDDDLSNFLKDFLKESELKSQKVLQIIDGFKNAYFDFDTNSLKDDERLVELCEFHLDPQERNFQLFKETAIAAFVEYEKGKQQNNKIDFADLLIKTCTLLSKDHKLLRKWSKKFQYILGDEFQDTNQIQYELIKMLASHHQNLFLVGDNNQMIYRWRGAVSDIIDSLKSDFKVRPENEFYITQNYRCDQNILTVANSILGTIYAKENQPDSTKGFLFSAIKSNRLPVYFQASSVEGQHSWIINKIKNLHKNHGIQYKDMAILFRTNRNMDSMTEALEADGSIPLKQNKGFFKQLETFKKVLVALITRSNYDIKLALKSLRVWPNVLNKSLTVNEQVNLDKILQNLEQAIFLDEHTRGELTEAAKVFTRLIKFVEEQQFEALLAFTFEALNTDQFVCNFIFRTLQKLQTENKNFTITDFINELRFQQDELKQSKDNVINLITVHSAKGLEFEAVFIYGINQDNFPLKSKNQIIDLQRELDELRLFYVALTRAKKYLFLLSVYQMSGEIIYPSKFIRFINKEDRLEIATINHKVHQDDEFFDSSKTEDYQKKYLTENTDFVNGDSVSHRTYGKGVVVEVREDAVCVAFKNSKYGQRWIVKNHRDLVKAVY

PcrA Mge [2] = target: T2, PcrA Mge (Mycoplasma genitalium strain G37, UniProt P47486 1-703); experiment: as above; details: protein: recombinant; tags: N-terminal MBP; label: 5' 6-FAM
T2 sequence: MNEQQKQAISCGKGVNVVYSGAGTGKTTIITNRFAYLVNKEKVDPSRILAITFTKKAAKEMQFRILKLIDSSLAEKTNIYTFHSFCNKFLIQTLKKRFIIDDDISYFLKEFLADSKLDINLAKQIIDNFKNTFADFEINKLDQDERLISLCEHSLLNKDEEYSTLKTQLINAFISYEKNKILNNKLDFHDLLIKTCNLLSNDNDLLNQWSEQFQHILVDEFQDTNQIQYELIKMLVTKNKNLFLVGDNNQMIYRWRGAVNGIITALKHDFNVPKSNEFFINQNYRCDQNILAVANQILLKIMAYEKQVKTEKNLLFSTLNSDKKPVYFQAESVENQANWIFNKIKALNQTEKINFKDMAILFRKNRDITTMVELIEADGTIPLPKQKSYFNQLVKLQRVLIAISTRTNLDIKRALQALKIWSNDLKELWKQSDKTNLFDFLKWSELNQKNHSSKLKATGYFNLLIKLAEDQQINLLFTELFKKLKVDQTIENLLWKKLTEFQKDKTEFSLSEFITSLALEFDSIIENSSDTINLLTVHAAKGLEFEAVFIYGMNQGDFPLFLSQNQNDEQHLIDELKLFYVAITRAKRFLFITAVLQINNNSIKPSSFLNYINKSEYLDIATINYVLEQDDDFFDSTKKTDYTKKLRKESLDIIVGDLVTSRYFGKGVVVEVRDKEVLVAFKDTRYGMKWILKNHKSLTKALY

PcrAs M129 = target: T3, PcrAs M129 (Mycoplasma pneumoniae strain M129, UniProt P75438 1-529); experiment: EMSA; up to 200 nM protein; 20 mM Tris-HCl pH 7.5, 1 mM DTT, 50 ng/ul BSA, 8 nM DNA, 15 min at room temperature, no Mg2+ or ATP listed; 6% PAGE in 1x TBE; details: protein: recombinant, tags: N-terminal MBP
T3 sequence: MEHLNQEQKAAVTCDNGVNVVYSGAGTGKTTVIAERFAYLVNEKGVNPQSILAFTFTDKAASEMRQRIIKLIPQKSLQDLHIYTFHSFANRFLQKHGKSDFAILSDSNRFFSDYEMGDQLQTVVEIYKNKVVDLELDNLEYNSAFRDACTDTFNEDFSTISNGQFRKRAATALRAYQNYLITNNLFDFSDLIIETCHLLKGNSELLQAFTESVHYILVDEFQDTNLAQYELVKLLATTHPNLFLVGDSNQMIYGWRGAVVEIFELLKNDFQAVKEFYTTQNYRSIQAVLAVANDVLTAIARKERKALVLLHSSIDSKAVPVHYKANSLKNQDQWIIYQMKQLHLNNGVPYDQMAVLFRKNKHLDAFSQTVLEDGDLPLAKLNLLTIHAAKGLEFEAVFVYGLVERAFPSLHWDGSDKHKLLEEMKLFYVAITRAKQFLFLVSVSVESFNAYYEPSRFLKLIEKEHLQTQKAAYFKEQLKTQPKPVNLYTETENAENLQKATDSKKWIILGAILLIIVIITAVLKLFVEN

PcrA Mpn [3] = target: T1, PcrA Mpn; experiment: EMSA; 22-200 nM protein; most complexes did not enter gel; 20 mM Tris-HCl pH 7.5, 1 mM DTT, 50 ng/ul BSA, 8 nM DNA, 15 min at room temperature, no Mg2+ or ATP listed; 6% PAGE in 1x TBE; details: protein: recombinant; tags: N-terminal MBP; label: 5' 6-FAM on one strand; 3' overhang 24 nt
PcrA Mge [4] = target: T2, PcrA Mge; experiment: as above; details: protein: recombinant; tags: N-terminal MBP; label: 5' 6-FAM on one strand; 3' overhang 24 nt
PcrA Mpn [5] = target: T1, PcrA Mpn; experiment: EMSA; 22-200 nM protein; discrete complex III; 20 mM Tris-HCl pH 7.5, 1 mM DTT, 50 ng/ul BSA, 8 nM DNA, 15 min at room temperature, no Mg2+ or ATP listed; 6% PAGE in 1x TBE; details: protein: recombinant; tags: N-terminal MBP; label: 5' 6-FAM on one strand; 5' overhang 24 nt
PcrA Mge [6] = target: T2, PcrA Mge; experiment: EMSA; 22-200 nM protein; discrete complex IV; 20 mM Tris-HCl pH 7.5, 1 mM DTT, 50 ng/ul BSA, 8 nM DNA, 15 min at room temperature, no Mg2+ or ATP listed; 6% PAGE in 1x TBE; details: protein: recombinant; tags: N-terminal MBP; label: 5' 6-FAM on one strand; 5' overhang 24 nt

B1: oligonucleotide 1 (ssDNA)
DNA: CAAAGTAAGAGCTTCTCGAGCTGCGCAAGGATAGGTCGAATTTTCTCATTTT
binding result (PcrA Mpn [1]): binds
binding result (PcrA Mge [2]): binds
binding result (PcrAs M129; label: 5' 6-FAM): no binding

B2: substrate a (dsDNA)
DNA 1: CAAAGTAAGAGCTTCTCGAGCTGCGCAAGGATAGGTCGAATTTTCTCATTTT
DNA 2: AAAATGAGAAAATTCGACCTATCCTTGCGCAGCTCGAGAAGCTCTTACTTTGATCGGATCCATGAATGAACAACAA
binding result (PcrA Mpn [3]): binds
binding result (PcrA Mge [4]): binds
binding result (PcrAs M129; label: 5' 6-FAM on one strand, 3' overhang 24 nt): no binding

B3: substrate b (dsDNA)
DNA 1: CAAAGTAAGAGCTTCTCGAGCTGCGCAAGGATAGGTCGAATTTTCTCATTTT
DNA 2: ATCGGATCCATGAATGAACAACAAAAAATGAGAAAATTCGACCTATCCTTGCGCAGCTCGAGAAGCTCTTACTTTG
binding result (PcrAs M129; label: 5' 6-FAM on one strand, 5' overhang 24 nt): no binding
binding result (PcrA Mpn [5]): binds
binding result (PcrA Mge [6]): binds

B4: substrate c (dsDNA)
DNA 1: CAAAGTAAGAGCTTCTCGAGCTGCGCAAGGATAGGTCGAATTTTCTCATTTT
DNA 2: AAAATGAGAAAATTCGACCTATCCTTGCGCAGCTCGAGAAGCTCTTACTTTG
binding result (PcrAs M129; label: 5' 6-FAM on one strand, blunt): no binding
